Assay results from the Human Domainome abundance scans (Beltran et al. 2025).
± gives the uncertainty stated by the source.

B1: Tumor protein p73, residues 487 to 549; numbered along this chain, O15350 (parent)
chain: YHADPSLVSFLTGLGCPNCIEYFTSQGLQSIYHLQNLTIEDLGALKIPEQYRMTIWRGLQDLK

Variants of: B1
Experiment: abundance fitness (aPCA) (normalised: wild type 0, dead -1); higher = more abundant; growth selection in yeast, the domain comes from the species named
Settings: Homo sapiens

Variant | abundance fitness
Q60C | -0.102 ± 0.075
Q60T | -0.017 ± 0.079
Q60A | 0.047 ± 0.027
R52M | -0.146 ± 0.063
R52Q | -0.019 ± 0.046
L62K | -0.257 ± 0.08
L62C | -0.117 ± 0.095
L62F | -0.059 ± 0.053
L62V | -0.007 ± 0.033
L62I | -0.044 ± 0.07
N36I | -0.02 ± 0.073
N36S | 0.046 ± 0.039
N36Y | -0.202 ± 0.091
N36E | 0.087 ± 0.043
N36T | -0.026 ± 0.059
N36G | 0.013 ± 0.035
H33R | -0.055 ± 0.031
H33P | -0.127 ± 0.037
H33T | 0.01 ± 0.048
H33K | 0.112 ± 0.041
C19R | -0.941 ± 0.06
C19P | -0.97 ± 0.12
C19E | -0.236 ± 0.058
C19W | -0.454 ± 0.065

Variant | abundance fitness
C19N | -0.511 ± 0.13
C19Q | 0.028 ± 0.056
I31V | 0.042 ± 0.036
I31K | -0.11 ± 0.051
I31L | 0.035 ± 0.037
I31E | -0.129 ± 0.045
I31Q | 0.026 ± 0.052
G43D | -0.085 ± 0.082
G43C | -0.049 ± 0.21
G43K | 0.119 ± 0.047
P48W | -1.07 ± 0.13
P48Y | -1.13 ± 0.21
P48V | -0.924 ± 0.089
P48G | -0.173 ± 0.036
P48T | -0.247 ± 0.05
C16R | -0.407 ± 0.041
C16I | 0.146 ± 0.12
C16T | -0.163 ± 0.05
C16G | -0.754 ± 0.091
C16F | -0.144 ± 0.084
Y32P | -0.04 ± 0.07
Y32V | 0.143 ± 0.039
Y32G | 0.104 ± 0.027
Y32E | 0.095 ± 0.053

Variant | abundance fitness
Y32I | 0.097 ± 0.089
Y32F | 0.069 ± 0.061
Y32L | 0.105 ± 0.032
Y32T | 0.014 ± 0.059
Y32C | 0.112 ± 0.054
S9D | -0.114 ± 0.098
S9Q | 0.095 ± 0.04
S9P | -0.134 ± 0.054
S9L | -0.131 ± 0.039
T54H | 0.071 ± 0.087
T54V | 0.088 ± 0.038
T54D | -0.01 ± 0.065
T54A | -0.034 ± 0.042
L34V | 0.038 ± 0.028
L34D | -0.835 ± 0.12
L34P | -0.671 ± 0.12
L34N | -0.536 ± 0.13
T24C | -0.097 ± 0.081
T24Q | -0.086 ± 0.056
T24R | -0.083 ± 0.031
T24A | -0.02 ± 0.039
T24P | -0.461 ± 0.13
T24Y | -0.206 ± 0.15
K63R | -0.159 ± 0.14

Variant | abundance fitness
K63Q | 0.074 ± 0.28
K63P | -0.394 ± 0.38
K63W | -0.044 ± 0.25
K63C | -0.239 ± 0.088
K63H | -0.34 ± 0.37
K63G | -0.002 ± 0.075
K63E | 0.103 ± 0.063
Y22G | -0.173 ± 0.034
Y22I | -0.108 ± 0.12
S30N | 0.025 ± 0.055
S30V | -0.521 ± 0.05
S30H | -0.027 ± 0.065
L11T | -0.858 ± 0.13
L11Q | -0.053 ± 0.11
L11A | -0.599 ± 0.07
L11N | -1.12 ± 0.37
L11P | -1.17 ± 0.25
L14Q | -0.298 ± 0.077
L14S | -0.407 ± 0.063
L14K | -0.174 ± 0.1
L14F | -0.493 ± 0.058
L14I | 0.009 ± 0.051
L14E | -0.53 ± 0.071
I55V | -0.041 ± 0.044

Variant | abundance fitness
I55A | -0.918 ± 0.11
I55N | -0.559 ± 0.35
I55S | -0.881 ± 0.1
I55C | -0.459 ± 0.079
Q50W | -0.135 ± 0.03
Q50G | 0.111 ± 0.04
Q50P | -0.132 ± 0.054
Q50V | 0.038 ± 0.035
Q50A | 0.08 ± 0.035
Q50M | 0.058 ± 0.052
Q50K | 0.06 ± 0.052
P5W | 0.021 ± 0.043
P5F | 0.046 ± 0.21
P5I | 0.209 ± 0.057
L7T | -0.157 ± 0.053
L7K | -0.984 ± 0.16
L7V | -0.049 ± 0.033
L7S | -0.831 ± 0.06
L7A | -0.257 ± 0.046
L7R | -1.01 ± 0.074
I47S | -0.95 ± 0.083
I47K | -0.929 ± 0.17
I47G | -0.913 ± 0.053
I47C | -0.171 ± 0.034

Variant | abundance fitness
I47E | -1.06 ± 0.11
I47P | -1.07 ± 0.17
I47R | -0.962 ± 0.063
I47W | -0.925 ± 0.053
I47T | -0.431 ± 0.061
M53D | 0.019 ± 0.047
M53I | -0.072 ± 0.1
M53R | 0.027 ± 0.028
M53A | -0.025 ± 0.023
M53V | -0.061 ± 0.021
M53N | 0.01 ± 0.075
M53H | 0.108 ± 0.075
Q29I | 0.142 ± 0.06
Q29H | 0.102 ± 0.076
Q29W | -0.139 ± 0.035
Q29T | 0.066 ± 0.04
L37T | -0.039 ± 0.065
L37M | 0.032 ± 0.05
L37K | 0.001 ± 0.076
L37F | 0.02 ± 0.064
L37D | -0.737 ± 0.16
G27M | -0.716 ± 0.069
G27V | -0.61 ± 0.084
G27T | -0.172 ± 0.075

Variant | abundance fitness
G27D | 0.06 ± 0.044
G27N | -0.055 ± 0.22
V8L | 0.137 ± 0.034
V8S | 0.005 ± 0.042
T38G | -0.088 ± 0.036
T38N | -0.11 ± 0.12
T38K | 0.103 ± 0.071
T38W | -0.415 ± 0.064
T38R | -0.049 ± 0.028
T38H | -0.064 ± 0.068
T38M | -0.13 ± 0.049
S25N | 0.001 ± 0.1
S25L | -0.055 ± 0.034
S25D | -0.074 ± 0.14
S25W | -0.361 ± 0.041
S25A | 0.03 ± 0.036
S25Q | 0.051 ± 0.043
S25M | -0.051 ± 0.047
L28M | 0.042 ± 0.051
L28F | 0.175 ± 0.077
L28H | 0.083 ± 0.13
L28N | -0.241 ± 0.072
L28C | 0.021 ± 0.044
